Measurements: article doi:10.1101/2025.08.18.670068, “Computational Design of Soluble CCR8 Analogues with Preserved Antibody Binding” (bioRxiv, 2025)

Target: T1, Wild-type CCR8 used as an assay control (Homo sapiens, UniProt P51685)
T1 construct: C-C chemokine receptor 8 (CCR8), human, wild type; Detergent-solubilised; 0.05% DDM and 0.01% CHS in the SPR running buffer; also called WT-CCR8; wild-type Human CCR8 protein; source: bought: Acro Biosystems (Cat. #CC8-H52D6)
Assay: SPR; Biacore 8K; mAb1 IgG1 captured on Protein A chip (about 400 RU); wild-type CCR8 as analyte; 10 mM HEPES, 150 mM NaCl, 3 mM EDTA, 0.005% Tween-20, pH 7.4, with 0.05% DDM and 0.01% CHS; steady-state affinity fit
Conditions: both partners purified

B1: mAb1 in full length human IgG1 format (antibody, V domains shown)
VH: QSVEESGGRLVTPGTPLTLTCTVSGFSLSNYAMIWVRQAPGEGLEWVGTISLGGYTYYANWAKGRFTISKTSTTVDLKISSPTTEDTATYFCARARWSTDSAIYTYAFDPWGPGTLVTVSS
VL: AYDMTQTPASVEVAVGGTVTIKCQASQSISSYLSWYQQKPGQRPELLIYKASTLASGVSSRFKGSGSGTQFTLTISDLEAADAATYYCQQGYTSSNIDNIFGGGTEVVVK
notes: VH of mAb1; constant region of human IgG1 heavy chain ('full length human IgG1 format'); light chain of mAb1; IgG1; captured on a Protein A chip for SPR; source: CHO cells, purified by one step Protein A chromatography
- Kd: 190 nM
